Assay results: PMC3031671

Target: Fibronectin (FN) purified from human plasma (human)
Assay: ELISA

Substance	Kd
Full-length MMP-2^E404A (catalytically inactive, ligand-binding matrix metalloproteinase-2) (from UniProt P08253 30-660) (enzyme)	20 nM
Isolated recombinant hemopexin-like carboxyl-terminal domain of MMP-2 (PEX) (from UniProt P08253 446-660) (domain or fragment)	100 nM
